{
  "source": "paper PMC6882843",
  "biological_target": "ToxT from Vibrio cholerae serogroup O42 strain SCE-256, wild type, purified (Vibrio cholerae serogroup O42 strain SCE-256) (UniProt Q7BGC0)",
  "assay": "SEC-SAXS",
  "data": [
    {"substance": "ToxT from Vibrio cholerae serogroup O42 strain SCE-256, wild type, purified (from UniProt Q7BGC0 1-276) (natural protein)", "values": [
      {"measurement": "stoichiometry N", "result": 2}
    ]}
  ]
}
